This test addresses T1, CBP-CRY1 (cryptochrome1 full-length, recombinant) (Arabidopsis thaliana, UniProt Q43125 1-681).
T1 construct: cryptochrome1 (CRY1), Arabidopsis thaliana, full-length; also called CRY1/pCal-n; CRY1 full-length; source: E. coli BL21 (DE3) codon plus, purified (electroelution), acetone-precipitated and resuspended in PBS
The test is described as follows: pull-down; 5 ug purified recombinant protein mixed in 500 ul interaction buffer (50 mM Tris-HCl pH 7.5, 10 mM MgCl2, 100 mM NaCl, 1 mM PMSF, 0.04% NP-40), 4°C 1 h; GST fusions held on GSH sepharose; blot probed with antibodies against the CBP-tag. As to conditions: both partners purified.

T1 sequence (Q43125 whole entry): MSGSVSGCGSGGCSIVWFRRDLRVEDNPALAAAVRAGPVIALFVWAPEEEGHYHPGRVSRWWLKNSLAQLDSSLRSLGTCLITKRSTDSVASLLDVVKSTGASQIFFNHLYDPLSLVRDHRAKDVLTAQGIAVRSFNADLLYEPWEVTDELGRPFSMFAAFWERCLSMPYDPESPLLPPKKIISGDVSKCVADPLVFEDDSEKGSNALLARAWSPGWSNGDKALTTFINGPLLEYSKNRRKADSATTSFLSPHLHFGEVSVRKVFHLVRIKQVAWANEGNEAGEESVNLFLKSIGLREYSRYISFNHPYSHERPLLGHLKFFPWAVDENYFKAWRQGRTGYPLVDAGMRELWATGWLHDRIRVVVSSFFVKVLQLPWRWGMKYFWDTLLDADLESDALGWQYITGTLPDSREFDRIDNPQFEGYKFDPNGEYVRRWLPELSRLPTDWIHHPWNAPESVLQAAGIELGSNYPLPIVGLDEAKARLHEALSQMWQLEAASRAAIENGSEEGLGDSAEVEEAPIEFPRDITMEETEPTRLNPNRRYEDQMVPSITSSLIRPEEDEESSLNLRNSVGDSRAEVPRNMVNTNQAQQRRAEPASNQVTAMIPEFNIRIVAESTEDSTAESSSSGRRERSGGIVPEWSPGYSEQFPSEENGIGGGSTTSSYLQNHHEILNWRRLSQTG

B1: GST-FIN219 (FIN219/JAR1 full-length, recombinant) (natural protein, Arabidopsis thaliana, UniProt Q9SKE2 1-575, looked up)
chain: MLEKVETFDMNRVIDEFDEMTRNAHQVQKQTLKEILLKNQSAIYLQNCGLNGNATDPEEAFKSMVPLVTDVELEPYIKRMVDGDTSPILTGHPVPAISLSSGTSQGRPKFIPFTDELMENTLQLFRTAFAFRNRDFPIDDNGKALQFIFSSKQYISTGGVPVGTATTNVYRNPNFKAGMKSITSPSCSPDEVIFSPDVHQALYCHLLSGILFRDQVQYVFAVFAHGLVHAFRTFEQVWEEIVTDIKDGVLSNRITVPSVRTAMSKLLTPNPELAETIRTKCMSLSNWYGLIPALFPNAKYVYGIMTGSMEPYVPKLRHYAGDLPLVSHDYGSSEGWIAANVTPRLSPEEATFAVIPNLGYFEFLPVSETGEGEEKPVGLTQVKIGEEYEVVITNYAGLYRYRLGDVVKVIGFYNNTPQLKFICRRNLILSINIDKNTERDLQLSVESAAKRLSEEKIEVIDFSSYIDVSTDPGHYAIFWEISGETNEDVLQDCCNCLDRAFIDAGYVSSRKCKTIGALELRVVAKGTFRKIQEHFLGLGSSAGQFKMPRCVKPSNAKVLQILCENVVSSYFSTAF
notes: FIN219/JAR1, Arabidopsis thaliana, full-length; also called GST-FIN219 full-length; FIN219FL/pGEX-4T-1; source: E. coli BL21 (DE3) codon plus, purified (GSH sepharose), acetone-precipitated and resuspended in PBS
Regarding B1, the binding result is “binds”.

The values are drawn from paper PMC5880400, “FIN219/JAR1 and cryptochrome1 antagonize each other to modulate photomorphogenesis under blue light in Arabidopsis” (PLoS Genetics, 2018).
